Assay results as given in patent US20250376509A1 (Janssen / Centocor, published 2025).

Target: T1, CALRins5 (Type 2 mutant calreticulin) on ELF-153 MPL CALRins5 cells (human, UniProt P27797 18-417)
T1 sequence (looked up): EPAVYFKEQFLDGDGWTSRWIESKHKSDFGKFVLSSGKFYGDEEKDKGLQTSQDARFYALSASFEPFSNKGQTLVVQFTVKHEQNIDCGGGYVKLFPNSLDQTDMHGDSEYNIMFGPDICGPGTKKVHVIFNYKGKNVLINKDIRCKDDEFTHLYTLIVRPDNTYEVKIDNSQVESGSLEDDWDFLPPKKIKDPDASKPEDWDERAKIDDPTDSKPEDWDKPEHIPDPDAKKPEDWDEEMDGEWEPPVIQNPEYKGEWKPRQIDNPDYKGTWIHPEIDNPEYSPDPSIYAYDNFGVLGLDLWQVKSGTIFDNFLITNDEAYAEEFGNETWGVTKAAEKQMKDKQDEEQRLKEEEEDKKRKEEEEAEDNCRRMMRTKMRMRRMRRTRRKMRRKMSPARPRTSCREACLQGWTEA
Assay: cell-based or functional assay

B1: C3CRB73, a CALRmut x CD3 bispecific antibody (bispecific antibody, human IgG1, kappa, L234A L235A)
heavy: EVQLLESGGGLVQPGGSLRLSCAVSGIDLSNNAISWVRQAPGKGLEYVGVIGNTGDTYYADSAKGRFTISRDSSKTTLYLQMNSLRAEDTAVYFCVRGPPSYSSSVKNIWGQGTLVTVSSASTKGPSVFPLAPSSKSTSGGTAALGCLVKDYFPEPVTVSWNSGALTSGVHTFPAVLQSSGLYSLSSVVTVPSSSLGTQTYICNVNHKPSNTKVDKKVEPKSCDKTHTCPPCPAPEAAGGPSVFLFPPKPKDTLMISRTPEVTCVVVSVSHEDPEVKFNWYVDGVEVHNAKTKPREEQYNSTYRVVSVLTVLHQDWLNGKEYKCKVSNKALPAPIEKTISKAKGQPREPQVYTLPPSREEMTKNQVSLSCAVKGFYPSDIAVEWESNGQPENNYKTTPPVLDSDGSFFLVSKLTVDKSRWQQGNVFSCSVMHEALHNRFTQKSLSLSPGK
light: DIQMTQSPSSVSASVGDRVTITCQSSQSVYNNNWLSWLQQKPGKAPKRLIYDASKLESGVPSRFSGSGSGTDFTLTISSVQPEDAATYYCAGGFTGNVYTFGGGTKVEIKRTVAAPSVFIFPPSDEQLKSGTASVVCLLNNFYPREAKVQWKVDNALQSGNSQESVTEQDSKDSTYSLSSTLTLSKADYEKHKVYACEVTHQGLSSPVTKSFNRGEC
chain: DIQMTQSPSSLSASVGDRVTITCRARQSIGTAIHWYQQKPGCAPKLLIKYASESISGVPSRFSGSGSGTDFTLTISSLQPEDFATYYCQQSGSWPYTFGQGTKLEIKGGGSGGSGGCPPCGGSGGEVQLVESGGGLVKPGGSLRLSCAASGFTFSRYNMNWVRQAPGKGLEWVSSISTSSNYIYYADSVKGRFTFSRDNAKNSLDLQMSGLRAEDTAIYYCTRGWGPFDYWGCGTLVTVSSEPKSSDKTHTCPPCPAPEAAGGPSVFLFPPKPKDTLMISRTPEVTCVVVSVSHEDPEVKFNWYVDGVEVHNAKTKPREEQYNSTYRVVSVLTVLHQDWLNGKEYKCKVSNKALPAPIEKTISKAKGQPREPQVYTLPPSREEMTKNQVSLWCLVKGFYPSDIAVEWESNGQPENNYKTTPPVLDSDGSFFLYSKLTVDKSRWQQGNVFSCSVMHEALHNHYTQKSLSLSPGK
median EC50 of ELF-153 MPL CALRins5 cells cytotoxicity using patient whole blood: 640 pM
